Residues, ends and D or L forms follow the SMILES beside them.
What was measured:
[1] = biological target: LatB-bound G-actin (rabbit skeletal muscle actin) (Oryctolagus cuniculus, UniProt P68135); experiment: Fluorescence anisotropy assay of RPEL^MAL:G-actin interaction; format: binding; conditions: ratio of Kd values from fluorescence anisotropy
[2] = biological target: FITC-conjugated 'RPEL2-like' RPEL3^MAL peptide, G171/P172 replaced by E and R (mouse); experiment: fluorescence polarisation
[3] = biological target: FITC-conjugated RPEL1^MAL peptide, E86A (mouse); experiment: fluorescence polarisation
[4] = biological target: FITC-conjugated RPEL1^MAL peptide, MAL(67–98), wild type (mouse); experiment: fluorescence polarisation
[5] = biological target: FITC-conjugated RPEL1^MAL peptide, R81 and R82 both to alanine (mouse); experiment: fluorescence polarisation
[6] = biological target: FITC-conjugated RPEL1^MAL peptide, R81A (mouse); experiment: fluorescence polarisation
[7] = biological target: FITC-conjugated RPEL1^MAL peptide, alanine at R82 (the position of the conserved RPEL proline) (mouse); experiment: fluorescence polarisation
[8] = biological target: FITC-conjugated RPEL1^MAL peptide, α2^AAA mutant (mouse); experiment: fluorescence polarisation
[9] = biological target: FITC-conjugated RPEL2^MAL peptide, E130A (mouse); experiment: fluorescence polarisation
[10] = biological target: FITC-conjugated RPEL2^MAL peptide, MAL(111–142), wild type (mouse); experiment: fluorescence polarisation
[11] = biological target: FITC-conjugated RPEL2^MAL peptide, P126 replaced with arginine (mouse); experiment: fluorescence polarisation
[12] = biological target: FITC-conjugated RPEL2^MAL peptide, P126A (mouse); experiment: fluorescence polarisation
[13] = biological target: FITC-conjugated RPEL3^MAL peptide, MAL(155–186), wild type (mouse); experiment: fluorescence polarisation

Row | Fold reduction of actin-binding affinity relative to the wild-type peptide [1] [fold] | Kd [2] [µM] | Kd [3] [µM] | Kd [4] [µM] | Kd [5] [µM] | Kd [6] [µM] | Kd [7] [µM] | Kd [8] [µM] | Kd [9] [µM] | Kd [10] [µM] | Kd [11] [µM] | Kd [12] [µM] | Kd [13] [µM] | Compound
1 | 16 | – | – | – | – | – | – | – | – | – | – | – | – | CC[C@H](C)[C@H](NC(=O)[C@H](CCCCN)NC(=O)[C@H](CCCNC(=N)N)NC(=O)[C@H](CCCCN)NC(=O)[C@H](CC(C)C)NC(=O)[C@H](Cc1ccc(O)cc1)NC(=O)[C@H](CC(=O)O)NC(=O)[C@H](CCC(=O)O)NC(=O)[C@@H](NC(=O)[C@H](CCCNC(=N)N)NC(=O)[C@H](C)NC(=O)[C@H](CCCNC(=N)N)NC(=S)Nc1ccc2c(c1)C(=O)OC21c2ccc(O)cc2Oc2cc(O)ccc21)[C@@H](C)O)C(=O)N[C@@H](CCCNC(=N)N)C(=O)N[C@@H](CO)C(=O)N[C@@H](CCCNC(=N)N)C(=O)N[C@@H](C)C(=O)N[C@@H](CCC(=O)O)C(=O)N[C@@H](CCCNC(=N)N)C(=O)N[C@@H](C)C(=O)N[C@@H](CCC(=O)O)C(=O)N[C@@H](CC(C)C)C(=O)N[C@H](C(=O)N[C@@H](CCCNC(=N)N)C(=O)N[C@@H](CCSC)C(=O)N[C@@H](Cc1c[nH]cn1)C(=O)N[C@H](C(=O)N[C@@H](CC(C)C)C(=O)N[C@@H](CCC(=O)O)C(=O)N[C@@H](CCC(=O)O)C(=O)N[C@H](C(=O)N[C@@H](CO)C(=O)N[C@@H](C)C(=O)O)[C@@H](C)O)[C@@H](C)CC)C(C)C [RPEL2 P126A] (HELM PEPTIDE1{[O=C1OC2(c3ccc(O)cc3Oc3cc(O)ccc32)c2ccc(NC(=S)[*:2])cc21].R.A.R.T.E.D.Y.L.K.R.K.I.R.S.R.A.E.R.A.E.L.V.R.M.H.I.L.E.E.T.S.A}$$$$V2.0; C-terminus assumed)
2 | 3.5 | – | – | – | – | – | – | – | – | – | – | – | – | CC[C@H](C)[C@H](NC(=O)CNC(=O)[C@H](CCC(N)=O)NC(=O)[C@H](CO)NC(=O)[C@@H](NC(=O)[C@H](CC(C)C)NC(=O)[C@H](CCC(=O)O)NC(=O)[C@H](CCC(=O)O)NC(=O)[C@H](CCCNC(=N)N)NC(=O)[C@@H](NC(=O)[C@H](C)NC(=O)[C@H](CCCNC(=N)N)NC(=O)[C@H](CCC(N)=O)NC(=O)[C@H](CCC(N)=O)NC(=O)[C@H](CC(C)C)NC(=O)[C@H](CCCCN)NC(=O)[C@H](CC(C)C)NC(=O)[C@H](CCC(N)=O)NC(=O)[C@H](CC(C)C)NC(=O)[C@@H](NC(=O)[C@H](CC(N)=O)NC(=O)[C@H](CCCCN)NC(=O)[C@H](CCCNC(=N)N)NC(=O)[C@H](CCC(=O)O)NC(=O)[C@H](CO)NC(=O)[C@H](CC(C)C)NC(=S)Nc1ccc2c(c1)C(=O)OC21c2ccc(O)cc2Oc2cc(O)ccc21)C(C)C)[C@@H](C)O)C(C)C)C(=O)N[C@@H](CCSC)C(=O)N1CCC[C@H]1C(=O)N1CCC[C@H]1C(=O)N[C@@H](CC(C)C)C(=O)N[C@@H](CCCCN)C(=O)N[C@@H](CO)C(=O)O [RPEL1 R82A] (HELM PEPTIDE1{[O=C1OC2(c3ccc(O)cc3Oc3cc(O)ccc32)c2ccc(NC(=S)[*:2])cc21].L.S.E.R.K.N.V.L.Q.L.K.L.Q.Q.R.A.T.R.E.E.L.V.S.Q.G.I.M.P.P.L.K.S}$$$$V2.0; C-terminus assumed)
3 | – | 4.8 | 2.7 | 1 | 44.5 | 17.7 | 3.7 | 24 | 1.9 | 1.9 | 19.5 | 30.8 | 28.9 | rabbit skeletal muscle G-actin bound to latrunculin B (LatB) and ATP (from UniProt P68135 1-377) (natural protein)

Source: PMC2583105 (The EMBO Journal, 2008)
